Data on 1 molecule can be found in patent publication US6572751B1, “Method and apparatus for continuous flow isoelectric focusing for purifying biological substances” (priority 1997, dated 2003).

The assay is described as follows: Amylolytic activity of purified α-amylase. To be noted: middle outflow after second contifocusing run.

B1: α-amylase: enzyme purified from Bacillus subtilis strain A-200 culture supernatant (protein, UniProt P00691 42-659, looked up)
Alpha-amylase: LTAPSIKSGTILHAWNWSFNTLKHNMKDIHDAGYTAIQTSPINQVKEGNQGDKSMSNWYWLYQPTSYQIGNRYLGTEQEFKEMCAAAEEYGIKVIVDAVINHTTSDYAAISNEVKSIPNWTHGNTQIKNWSDRWDVTQNSLLGLYDWNTQNTQVQSYLKRFLDRALNDGADGFRFDAAKHIELPDDGSYGSQFWPNITNTSAEFQYGEILQDSASRDAAYANYMDVTASNYGHSIRSALKNRNLGVSNISHYASDVSADKLVTWVESHDTYANDDEESTWMSDDDIRLGWAVIASRSGSTPLFFSRPEGGGNGVRFPGKSQIGDRGSALFEDQAITAVNRFHNVMAGQPEELSNPNGNNQIFMNQRGSHGVVLANAGSSSVSINTATKLPDGRYDNKAGAGSFQVNDGKLTGTINARSVAVLYPDDIAKAPHVFLENYKTGVTHSFNDQLTITLRADANTTKAVYQINNGPETAFKDGDQFTIGKGDPFGKTYTIMLKGTNSDGVTRTEKYSFVKRDPASAKTIGYQNPNHWSQVNAYIYKHDGSRVIELTGSWPGKPMTKNADGIYTLTLPADTDTTNAKVIFNNGSAQVPGQNQPGFDYVLNGLYNDSGLSGSLPH
As to B1, the amylolytic activity is 200 U/g.
